According to IntAct's records for PubMed 21037566:

Target: lef_bacan lef (UniProt P15917)

Substance | effect of a mutation on the interaction
Protective antigen (Bacillus anthracis) (from UniProt P13423) H240A | disrupting interaction
Protective antigen (Bacillus anthracis) (from UniProt P13423) L216A | disrupting interaction
